Data reported in patent publication US20240383982A1 (Genmab, published 2024).
Blank lines part the entries; values can stand above or below the binder they belong to.

Legend:
[1] = target: T1, human B7H4, full length, on cells (human, UniProt Q7Z7D3 25-282); assay: flow cytometry on NIH-OVCAR-3 tumor cells [panel NIH-Ovcar-3 cells]
T1 construct: Uniprot Q7Z7D3; Used for transfected HEK cells and for the B7H4-expressing human tumor cell lines (endogenous B7H4); also called VTCN1
T1 sequence: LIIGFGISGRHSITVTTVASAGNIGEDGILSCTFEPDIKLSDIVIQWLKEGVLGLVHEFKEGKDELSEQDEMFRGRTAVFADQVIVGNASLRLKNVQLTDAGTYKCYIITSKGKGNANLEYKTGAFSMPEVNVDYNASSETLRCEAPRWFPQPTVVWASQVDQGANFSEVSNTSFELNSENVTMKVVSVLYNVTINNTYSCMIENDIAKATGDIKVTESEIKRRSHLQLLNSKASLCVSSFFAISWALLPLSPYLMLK
Method: (§1) Cells (3×10⁴ cells/well) were incubated in polystyrene 96-well round-bottom plates (Greiner bio-one, cat. no. 650180) with serial dilutions of antibodies (ranging from 0.000458 to 30 μg/mL in 4-fold dilution steps) in 100 μL PBS/0.1% BSA/0.02% azide (staining buffer) at 4° C. for 30 min. Experiments were performed in technical duplicate. After washing twice in staining buffer, cells were incubated in 50 μL secondary antibody at 4° C. for 30 min. As a secondary antibody, R-Phycoerythrin (PE)-conjugated goat-anti-human IgG F(ab′)₂ (1:500 in FACS buffer; Jackson ImmunoResearch Laboratories, Inc., West Grove, PA, cat. no. 109-116-098), was used. Cells were washed twice in staining buffer, re-suspended in 30 μL FACS buffer containing Topro-3 (1:10,000 dilution) and analyzed on an iQue Screener (Intellicyt Corporation, USA). Binding curves were analyzed using non-linear regression (sigmoidal dose-response with variable slope) using GraphPad Prism V7.02 software (GraphPad Software, San Diego, CA, USA).
Binding was analyzed by flow cytometry as described above.

[2] = target: T2, human recombinant His tagged B7H4 protein (Sino Biological cat. no. 10738-H08H) (human, UniProt Q7Z7D3 29-258); assay: BLI (Octet HTX); antibody on anti-human IgG Fc capture sensor, human B7H4 ECD-His in solution; 2nd experiment (average of n = 3)
T2 construct: Bought protein; theoretical mass 26.8 kDa; also called human B7H4; human B7H4 extracellular domain
T2 sequence: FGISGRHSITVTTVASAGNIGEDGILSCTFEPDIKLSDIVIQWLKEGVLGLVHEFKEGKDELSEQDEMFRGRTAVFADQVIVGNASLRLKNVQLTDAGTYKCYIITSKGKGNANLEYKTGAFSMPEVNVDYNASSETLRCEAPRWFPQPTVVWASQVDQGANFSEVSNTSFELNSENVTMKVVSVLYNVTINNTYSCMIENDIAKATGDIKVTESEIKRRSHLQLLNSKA
Method: (§2) Target binding affinity of B7H4 antibodies was determined by label-free biolayer interferometry (BLI) on an Octet HTX instrument (FortéBio). Experiments were carried out while shaking at 1,000 RPM at 30° C. […] Anti-Human IgG Fc Capture (AHC) biosensors (FortéBio, cat. no. 18-5060) were pre-conditioned by exposure to 10 mM glycine (Sigma-Aldrich, cat. no. 15527) buffer pH 1.7 for 5 s, followed by neutralization in Sample Diluent (FortéBio, cat. no. 18-1048) for 5 s; both steps were repeated 2 times. Next, AHC sensors were loaded with antibody (1 μg/mL in Sample diluent) for 600 s. […] The theoretical molecular mass of human B7H4 and mouse B7H4 (as ECD-His tagged molecules) based on their amino acid sequences (26.8 kDa and 26.6 kDa respectively) were used for calculations. For each antibody a reference sensor was used, which was incubated with Sample Diluent instead of antigen. AHC sensors were regenerated by exposure to 10 mM glycine buffer pH 1.7 for 5 s, followed by neutralization in Sample Diluent for 5 s; both steps were repeated twice. Subsequently sensors were loaded again with antibody for the next cycle of kinetics measurements.
(§3) Data were acquired using Data Acquisition Software v9.0.0.49d (FortéBio) and analyzed with Data Analysis Software v9.0.0.12 (FortéBio). Data traces were corrected per antibody by subtraction of the reference sensor. The Y-axis was aligned to the last 10 s of the baseline, Interstep Correction alignment to dissociation and Savitzky-Golay filtering were applied. Data traces with a response<0.05 nm were excluded from analysis. The data was fitted with the 1:1 Global Full fit model using a window of interest for the association and dissociation times set at 300 s and 200 s respectively.

[3] = target: T1, human B7H4, full length, on cells; assay: flow cytometry, HEK-293F cells transfected with human B7H4 [panel Human B7H4]
Method: as §1

[4] = target: T3, mouse B7H4 ECD-His (R&D Systems, cat. no. 2154-B7-050) (mouse, UniProt Q7TSP5 29-256); assay: BLI (Octet HTX); antibody on anti-human IgG Fc capture sensor, mouse B7H4 ECD-His in solution; 2nd experiment
T3 construct: Bought ECD-His protein (26.6 kDa); also called mouse B7H4 extracellular domain
T3 sequence: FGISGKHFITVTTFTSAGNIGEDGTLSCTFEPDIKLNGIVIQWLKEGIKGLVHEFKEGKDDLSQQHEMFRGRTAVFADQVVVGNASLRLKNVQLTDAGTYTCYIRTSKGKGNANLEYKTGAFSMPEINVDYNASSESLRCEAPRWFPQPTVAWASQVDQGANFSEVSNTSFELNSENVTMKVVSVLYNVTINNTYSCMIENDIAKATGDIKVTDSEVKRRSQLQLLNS
Method: as §2, §3

[5] = target: T2, human recombinant His tagged B7H4 …; assay: BLI (Octet HTX); antibody on anti-human IgG Fc capture sensor, human B7H4 ECD-His in solution; 2nd experiment
Method: as §2, §3

B1: bsIgG1-huCD3-H101G-FEALxB7H4-C1-N52S-FEAR (bispecific antibody)
heavy 1: not shown
light 1: not shown
heavy 2: QVQLQQWGAGLLKPSETLSLTCAVYGGSFSGYYWSWIRQPPGKGLEWIGEISHSGSTNYNPSLKSRVTISIDTSKNQFSLKLTSVTAADTAVFYCARGLFNWNFDSWGQGTLVTVSSASTKGPSVFPLAPSSKSTSGGTAALGCLVKDYFPEPVTVSWNSGALTSGVHTFPAVLQSSGLYSLSSVVTVPSSSLGTQTYICNVNHKPSNTKVDKRVEPKSCDKTHTCPPCPAPEFEGGPSVFLFPPKPKDTLMISRTPEVTCVVVAVSHEDPEVKFNWYVDGVEVHNAKTKPREEQYNSTYRVVSVLTVLHQDWLNGKEYKCKVSNKALPAPIEKTISKAKGQPREPQVYTLPPSREEMTKNQVSLTCLVKGFYPSDIAVEWESNGQPENNYKTTPPVLDSDGSFFLYSRLTVDKSRWQQGNVFSCSVMHEALHNHYTQKSLSLSPGK
light 2: DIQMTQSPSSLSASVGDRVTITCRASQGIRNDLGWYQQKPGKAPKRLIYGASSLQSGVPSRFSGSGSGTEFTLTISSLQPEDFATYYCLQHNSYPRTFGQGTTVEIKRTVAAPSVFIFPPSDEQLKSGTASVVCLLNNFYPREAKVQWKVDNALQSGNSQESVTEQDSKDSTYSLSSTLTLSKADYEKHKVYACEVTHQGLSSPVTKSFNRGEC
notes: also called bslgG1-huCD3-H101G-FEALxB7H4-C1-N52S-FEAR; BslgG1-huCD3-H101G-FEALxB7H4-C1-N52S-FEAR
EC50 (read off the curve) [1]: ~2 µg/mL

Kd [2]: 57 nM
koff [2]: 0.0047 s⁻¹
kon [2]: 84000 M⁻¹ s⁻¹
EC50 (read off the curve) [3]: ~0.05 µg/mL
B2: IgG1-B7H4-C1-N52S-FEAR (antibody, V domains shown)
VH: QVQLQQWGAGLLKPSETLSLTCAVYGGSFSGYYWSWIRQPPGKGLEWIGEISHSGSTNYNPSLKSRVTISIDTSKNQFSLKLTSVTAADTAVFYCARGLFNWNFDSWGQGTLVTVSS
VL: DIQMTQSPSSLSASVGDRVTITCRASQGIRNDLGWYQQKPGKAPKRLIYGASSLQSGVPSRFSGSGSGTEFTLTISSLQPEDFATYYCLQHNSYPRTFGQGTTVEIKR
notes: Full length human IgG1 with L234F, L235E, D265A, K409R (FEAR) heavy chain constant region and kappa light chain; bivalent, monospecific; also called IgG1-B7H4-C1-052S-FEAR

Kd [4]: 14 nM
koff [4]: 0.0024 s⁻¹
kon [4]: 170000 M⁻¹ s⁻¹
Kd [5]: 9.9 nM
koff [5]: 0.0025 s⁻¹
kon [5]: 250000 M⁻¹ s⁻¹
B3: IgG1-B7H4-C5-FEAR (antibody, V domains shown)
VH: QLQLQESGPGLVKPSETLSLTCTVSGGSIKSGSYYWGWIRQPPGKGLEWIGNIYYSGSTYYNPSLRSRVTISVDTSKNQFSLKLSSVTAADTAVYYCAREGSYPNQFDPWGQGTLVTVSS
VL: EIVMTQSPATLSVSPGERATLSCRASQSVSSNLAWYQQKPGQAPRLLIYGASTRATGIPARFSGSGSGTEFTLTISSLQSEDFAVYYCQQYHSFPFTFGGGTKVEIKR
notes: Full length IgG1 FEAR, kappa; variable domains from US20190085080A1
